In PMC3374797, “Intrinsically Unstructured Domain 3 of Hepatitis C Virus NS5A Forms a “Fuzzy Complex” with VAPB-MSP Domain Which Carries ALS-Causing Mutations” (PLoS ONE, 2012):
Entries after “also recorded” stand apart in the source; their conditions may differ.

Assays:
[1] = target: T1, VAPB-MSP(1–125) T46I mutant (Homo sapiens, UniProt O95292, T46I); assay: NMR HSQC titration of 15N-VAPB-MSP(1-125) T46I mutant; format: binding
T1 construct: chemical shifts of VAPB-MSP(1–125) T46I mutant in the presence of unlabeled NS5A-D3C; His tag (N, cleaved yes); made in house; host or cells: Escherichia coli BL21 (DE3) Star
T1 sequence (O95292 1-125 T46I): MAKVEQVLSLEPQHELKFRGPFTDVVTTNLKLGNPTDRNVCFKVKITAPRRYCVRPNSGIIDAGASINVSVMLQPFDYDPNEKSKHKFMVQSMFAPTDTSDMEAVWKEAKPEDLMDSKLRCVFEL
Protocol: (§1) NMR samples were prepared in 10 mM phosphate buffer in the presence of 10 mM DTT (pH 6.8). All NMR data were collected at 25°C on an 800-MHz Bruker Avance spectrometer equipped with a shielded cryoprobe as described before [70]–[73]. For HSQC characterization, samples were prepared at a protein concentration of 100 µM. For sequential assignments of NS5A-D3, triple-resonance NMR experiments including HNCACB and CBCA(CO)NH were acquired on a double-labeled sample at a protein concentration of ∼300 µM while for sequential assignments of NS5A-D3A, three-dimensional heteronuclear NMR experiments including HSQC-TOCSY and HSQC-NOESY were acquired on a ^15N-labeled sample at a protein concentration of ∼500 µM. NMR data were processed with NMRpipe and analyzed with NMRview.
(§2) For NMR HSQC characterization of the binding interactions between NS5A and VAPB fragments/domains, two-dimensional ^1H-^15N HSQC spectra of the ^15N-labeled proteins were acquired at a protein concentration of 50 µM in the absence or presence of the unlabeled binding partners at different molar ratios. By superimposing the HSQC spectra at different molar ratios, the shifted or disappeared HSQC peaks could be identified and further assigned to the corresponding residues as we previously described, [67]–[70]. The degree of perturbation was reflected by an integrated chemical shift difference (CSD) calculated by the formula ((Δ^1H)^2+(Δ^15N)^2/5)^1/2 [73]. The CSD tracings were fitted by using the one binding site model to obtain residue-specific dissociation constants (Kd); which are summarized in Table 1.

[2] = target: T2, VAPB-MSP(1–125) (Homo sapiens, UniProt O95292); assay: NMR HSQC titration of 15N-VAPB-MSP(1-125) with NS5A fragments, Kd fitting; format: binding; set-up: His tag (N, cleaved yes); made in house; host or cells: Escherichia coli BL21 (DE3) Star
T2 sequence (O95292 1-125): as the sequence (O95292 1-125 T46I) above, with I46T counted along it
Protocol: as §1, §2

[3] = target: T2, VAPB-MSP(1–125); set-up: His tag (N, cleaved yes); made in house; host or cells: Escherichia coli BL21 (DE3) Star; details: molar ratio 1:2; ref [51]; cited from earlier work
Text: NMR titration and docking results all reveal that the D3B peptide is able to occupy the MSP surface regions which are also critical for binding to EphA4 receptor as we previously characterized. […] Subsequently the EphA4 ligand-binding domain (LBD) was gradually titrated into this sample.

[4] = target: T2, VAPB-MSP(1–125); assay: NMR competition of EphA4 LBD with D3B for VAPB-MSP(1-125); format: binding; set-up: His tag (N, cleaved yes); made in house; host or cells: Escherichia coli BL21 (DE3) Star; details: MSP saturated by D3B at 1:4 (MSP/D3B); EphA4 at 1:10 (MSP:EphA4)
Protocol: NMR titration and docking results all reveal that the D3B peptide is able to occupy the MSP surface regions which are also critical for binding to EphA4 receptor as we previously characterized. To confirm this, we first saturated the VAPB-MSP(1–125) by D3B at a molar ratio of 1∶4 (MSP/D3B). Subsequently the EphA4 ligand-binding domain (LBD) was gradually titrated into this sample.
NMR samples were prepared in 10 mM phosphate buffer in the presence of 10 mM DTT (pH 6.8). All NMR data were collected at 25°C on an 800-MHz Bruker Avance spectrometer equipped with a shielded cryoprobe as described before [70]–[73]. For HSQC characterization, samples were prepared at a protein concentration of 100 µM. […] NMR data were processed with NMRpipe and analyzed with NMRview.
For NMR HSQC characterization of the binding interactions between NS5A and VAPB fragments/domains, two-dimensional ^1H-^15N HSQC spectra of the ^15N-labeled proteins were acquired at a protein concentration of 50 µM in the absence or presence of the unlabeled binding partners at different molar ratios. […] The degree of perturbation was reflected by an integrated chemical shift difference (CSD) calculated by the formula ((Δ^1H)^2+(Δ^15N)^2/5)^1/2 [73]. […]

[5] = test system: VAPB-MSP T46I mutant; details: ref [51]; cited from earlier work
[6] = target: T2, VAPB-MSP(1–125); assay: NMR titration

Row | Molecule | Interaction (Yes/No) with VAPB-MSP(1-125) T46I ([1]; 15N-VAPB-MSP(1-125) T46I) | HSQC perturbation of T46I mutant ([1]; molar ratio up to 1:6 (T46I/D3B)) | Kd for T46I mutant, statement in words ([1]; shift tracings highly unsaturated, up to 1:6 (T46I/D3B)) | Interaction (Yes/No) with VAPB-MSP(1-125) ([2]; 15N-VAPB-MSP(1-125), unlabeled NS5A fragment) | MSP residues whose HSQC peaks undergo gradual but significant shifts ([2]; molar ratio up to 1:4 (MSP/D3 peptide)) | Binding affinity to VAPB-MSP, in words ([2]; relative to D3 (and D3A, D3B)) | HSQC perturbation of VAPB-MSP(1-125) ([2]; words, 50 µM 15N-labelled protein) | HSQC perturbation of MSP by EphA4 LBD without D3B [3] | HSQC perturbation of MSP by EphA4 LBD with pre-existence of D3B [4] | Effect of T46I mutation on binding to EphA4 [5] | Kd [6] | residue-specific Kd (Asp116) [6] | residue-specific Kd (Gln6) [6] | residue-specific Kd (Gln91) [6] | residue-specific Kd (Leu119) [6] | residue-specific Kd (Met89) [6] | residue-specific Kd (Val90) [6] | residue-specific Kd (Val122) [6]
1 | CSCC[C@H](NC(=O)[C@H](CO)NC(=O)[C@H](CO)NC(=O)[C@H](Cc1ccc(O)cc1)NC(=O)[C@H](CO)NC(=O)[C@H](CCC(=O)O)NC(=O)[C@H](C)NC(=O)[C@H](CC(=O)O)NC(=O)[C@H](CO)NC(=O)CN)C(=O)N1CCC[C@H]1C(=O)N1CCC[C@H]1C(=O)N[C@@H](CC(C)C)C(=O)N[C@@H](CCC(=O)O)C(=O)NCC(=O)N[C@@H](CCC(=O)O)C(=O)N1CCC[C@H]1C(=O)NCC(=O)N[C@@H](CC(=O)O)C(=O)N1CCC[C@H]1C(=O)N[C@@H](CC(=O)O)C(=O)N[C@@H](CC(C)C)C(=O)N[C@@H](CO)C(=O)N[C@@H](CC(=O)O)C(=O)NCC(=O)N[C@@H](CO)C(=O)N[C@@H](Cc1c[nH]c2ccccc12)C(=O)N[C@@H](CO)C(=O)N[C@H](C(=O)N[C@H](C(=O)N[C@@H](CO)C(=O)N[C@@H](CCC(=O)O)C(=O)N[C@@H](CCC(=O)O)C(=O)N[C@@H](C)C(=O)N[C@@H](CO)C(=O)N[C@@H](CCC(=O)O)C(=O)N[C@@H](CC(=O)O)C(=O)N[C@H](C(=O)N[C@H](C(=O)O)C(C)C)C(C)C)C(C)C)[C@@H](C)O [D3B] | Yes/Weak | only a small set of T46I HSQC peaks were found to shift slightly of very small amplitude | impossible to fit out the CSD tracings to obtain Kd values | Yes | Gln6, Met89-Val90-Gln91, Asp116, Leu119 and Val122 | retains almost the same binding affinity and mode as the 89-residue D3 | almost the same shifting pattern and similar amplitude |  |  |  |  |  |  |  |  |  |  | 
2 | EphA4 LBD: 181-residue EphA4 ligand binding domain |  |  |  |  |  |  |  | started to trigger peak shift and disappearance of the MSP residues | only several MSP peaks were observed to shift slightly | reduced affinity to EphA4; also recorded: considerably reduces the binding affinity to EphA4 |  |  |  |  |  |  |  | 
3 | NS5A-D3(359–447) (domain or fragment) |  |  |  |  |  |  |  |  |  |  | 4.5 µM | 6.2 µM | 6.8 µM | 2.4 µM | 4.5 µM | 5.2 µM | 4.6 µM | 1.7 µM
4 | NS5A-D3A(394–447) (domain or fragment) |  |  |  |  |  |  |  |  |  |  | 8 µM | 10.2 µM | 11.5 µM | 7.1 µM | 7.7 µM | 9.9 µM | 7.2 µM | 2.4 µM
